Data published in patent US20260265379A1.

Target: PD-L1 at the surface of transduced cells (UniProt Q9NZQ7)
Experiment: flow cytometry, CHO-PD-L1 cells

Sequence of PD-L1 at the surface of transduced cells (Q9NZQ7 19-290 limits assumed): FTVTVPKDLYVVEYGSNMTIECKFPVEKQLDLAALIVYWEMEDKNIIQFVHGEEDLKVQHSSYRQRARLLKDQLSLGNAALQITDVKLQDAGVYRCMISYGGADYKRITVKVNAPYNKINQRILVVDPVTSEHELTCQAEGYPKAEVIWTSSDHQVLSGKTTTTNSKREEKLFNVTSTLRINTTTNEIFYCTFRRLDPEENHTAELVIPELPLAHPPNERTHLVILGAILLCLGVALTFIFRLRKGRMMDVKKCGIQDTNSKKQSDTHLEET

Isotype Durvalumab (antibody)
MFI at 10 nM: 38000 MFI
MFI at 100 nM: 41600 MFI
